{
  "source": "patent US20240052033A1",
  "about": "(Molecular Partners, published 2024)",
  "key": {"[1]": {"biological_target": "T1, human CD3 on primary human pan-T cells (human, UniProt P07766 23-207; P09693 23-182; P04234 22-171; P20963 22-164)", "T1 construct": "whole, on cells; Native CD3 complex (pairs εγ, εδ, ζζ) on T cells isolated from human PBMCs; it is associated with the T cell receptor on the cells; also called CD3 on Pan-T cells; CD3 on T cells", "T1 sequence (P07766 23-207, chain 1 of 4)": "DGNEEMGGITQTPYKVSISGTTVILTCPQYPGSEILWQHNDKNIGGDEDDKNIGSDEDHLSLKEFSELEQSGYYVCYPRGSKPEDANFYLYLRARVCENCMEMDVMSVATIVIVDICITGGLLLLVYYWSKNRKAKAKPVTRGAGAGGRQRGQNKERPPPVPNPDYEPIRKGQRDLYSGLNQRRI", "T1 sequence (P09693 23-182, chain 2 of 4)": "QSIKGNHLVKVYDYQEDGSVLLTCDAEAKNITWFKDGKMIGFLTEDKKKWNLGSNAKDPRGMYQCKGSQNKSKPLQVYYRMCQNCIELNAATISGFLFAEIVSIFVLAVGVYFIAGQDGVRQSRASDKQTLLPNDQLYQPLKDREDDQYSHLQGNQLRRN", "T1 sequence (P04234 22-171, chain 3 of 4)": "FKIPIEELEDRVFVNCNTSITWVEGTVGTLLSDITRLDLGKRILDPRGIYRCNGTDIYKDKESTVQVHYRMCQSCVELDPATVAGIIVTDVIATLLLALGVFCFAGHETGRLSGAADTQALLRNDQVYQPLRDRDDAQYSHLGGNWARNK", "T1 sequence (P20963 22-164, chain 4 of 4)": "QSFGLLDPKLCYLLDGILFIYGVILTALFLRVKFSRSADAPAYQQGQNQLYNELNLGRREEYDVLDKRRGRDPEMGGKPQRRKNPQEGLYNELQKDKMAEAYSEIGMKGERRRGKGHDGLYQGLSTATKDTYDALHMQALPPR", "assay": "Mirrorball laser scanning imaging cytometry on primary human pan-T cells with 600 µM HSA; detection with anti-penta-His Alexa Fluor 488; Median (FL-2 Mean Intensity) [B]", "description": "The determination of CD3 binding was performed with primary human T cells using Mirrorball laser scanning imaging cytometry. Therefore, primary T cells were isolated from human peripheral blood mononuclear cells (PBMCs) using a pan-T cell purification kit (Miltenyi Biotec). […] To generate the tri-specific TCE proteins, DARPin® protein #1, DARPin® protein #2, DARPin® protein #3 and DARPin® protein #4, respectively, was subcloned and expressed as described above into a derivative of the pQE30 (Qiagen) expression vector, encoding an N-terminal His-tag, followed by two different TAA-specific ankyrin repeat domains (in the order TAA2- and TAA3-specific, respectively), and then followed by one of the CD3-specific ankyrin repeat domains of the invention. […] After washing, CD3 binding was detected by 1:100-diluted anti-penta-His Alexa Fluor 488 antibody (Qiagen). […] Median of mean fluorescence intensities of Alexa Fluor 488 binding on far-red counterstained cells were measured by Mirrorball using Cellista software (SPT Labtech) and data was plotted using GraphPad Prism 8."}, "[2]": {"biological_target": "T2, biotinylated human scCD3εγ (scCD3εγ_Avi-Bio): single-chain human CD3ε/CD3γ extracellular domains joined by a … (human, biotinylated in vitro with BirA at the C-terminal Avi-tag)", "T2 construct": "monomeric; also called recombinant human CD3 target; human CD3 (SPR)", "T2 chain": "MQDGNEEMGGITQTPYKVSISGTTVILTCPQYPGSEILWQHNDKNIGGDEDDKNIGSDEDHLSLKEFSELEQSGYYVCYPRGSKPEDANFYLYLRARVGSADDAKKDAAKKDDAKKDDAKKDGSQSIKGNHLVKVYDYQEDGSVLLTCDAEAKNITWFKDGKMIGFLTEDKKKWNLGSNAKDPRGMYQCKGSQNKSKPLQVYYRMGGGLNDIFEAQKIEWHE", "assay": "ribosome display selection; crude extract HTRF on recombinant human CD3 target", "text": "Using ribosome display (Hanes, J. and Plückthun, A., PNAS 94, 4937-42, 1997), many ankyrin repeat proteins with binding specificity for human scCD3 were selected from DARPin® libraries similar as described by Binz et al. 2004 (loc. cit.). […] For example, the ankyrin repeat domain of SEQ ID NO: 1 constitutes an amino acid sequence of a selected binding protein comprising an ankyrin repeat domain with binding specificity for scCD3. Individual ankyrin repeat modules from such ankyrin repeat domains with binding specificity to scCD3 are provided, e.g., in SEQ ID NO: 5 to 9."}, "[3]": {"biological_target": "T1, human CD3 on primary human pan-T cells", "assay": "Mirrorball laser scanning imaging cytometry on primary human pan-T cells with 600 µM HSA; detection with anti-penta-His Alexa Fluor 488; Median (FL-2 Mean Intensity) [A]"}, "[4]": {"biological_target": "T1, human CD3 on primary human pan-T cells", "assay": "Mirrorball laser scanning imaging cytometry on primary human pan-T cells, 600 µM HSA, anti-penta-His Alexa Fluor 488 detection"}, "[5]": {"biological_target": "biotinylated human scCD3εγ (scCD3εγ_Avi-Bio): single-chain human CD3ε/CD3γ extracellular domains joined by a 26 amino acid linker, with a C-terminal Avi-tag (human)", "assay": "SPR (ProteOn), biotinylated scCD3εγ on NLC chip, DARPin as analyte 4-64 nM, PBS with 0.005% Tween 20; n = 6"}, "[6]": {"biological_target": "biotinylated human scCD3εγ (scCD3εγ_Avi-Bio): single-chain human CD3ε/CD3γ extracellular domains joined by a 26 amino acid linker, with a C-terminal Avi-tag (human)", "assay": "SPR (ProteOn), biotinylated scCD3εγ on NLC chip, DARPin as analyte 4-64 nM, PBS with 0.005% Tween 20; n = 2"}, "[7]": {"biological_target": "biotinylated human scCD3εγ (scCD3εγ_Avi-Bio): single-chain human CD3ε/CD3γ extracellular domains joined by a 26 amino acid linker, with a C-terminal Avi-tag (human)", "assay": "SPR (ProteOn), biotinylated scCD3εγ on NLC chip, DARPin as analyte 4-64 nM, PBS with 0.005% Tween 20; n = 4"}},
  "data": [
    {"binder": "DARPin® protein A (with HSA) (designed binder, The MOLECULES list holds the half-life extended forms of B, C and D only; also called DARPin® protein A with half-life extension) single chain: DLGQKLLEAAWAGQDDEVRELLKAGADVNAKDSQGWTPLHTAAQTGHLEIFEVLLKAGADVNAKDDKGVTPLHLAAALGHLEIVEVLLKAGADVNAQDSWGTTPADLAAKYGHEDIAEVLQKAA", "values": [
      {"measurement": "binding result", "setting": "[1]", "result": "no binding (tested: about 3000 nM)"}
    ]},
    {"binder": "SEQ ID NO 1 (designed binder, also called CD3-specific domain of DARPin® protein #1) DLGQKLLEAAWAGQDDEVRELLKAGADVNAKDSQGWTPLHTAAQTGHLEIFEVLLKAGADVNAKDDKGVTPLHLAAALGHLEIVEVLLKAGADVNAQDSWGTTPADLAAKYGHEDIAEVLQKAA", "values": [
      {"measurement": "binding result", "setting": "[2]", "result": "binds"}
    ]},
    {"binder": "DARPin® protein D with half-life extension (tetraspecific format: His-tag, HSA-specific domain, TAA2-specific domain, TAA3-specific domain, DARPin® protein #4) (designed binder, not shown: large carriers; small tags and cut ends, also called half-life extended DARPin® protein D; DARPin® protein #H) DLGQKLLEAAWAGQLDEVRILLKAGADVNAKNSRGWTPLHTAAQTGHLEIFEVLLKAGADVNAKTNKRVTPLHLAAALGHLEIVEVLLKAGADVNARDTWGTTPADLAAKYGHRDIAEVLQKAA", "values": [
      {"measurement": "EC50 (read off the curve)", "setting": "[1]", "result": "~20", "unit": "nM"}
    ]},
    {"binder": "DARPin® protein #4 with TAA2/TAA3 domains (trispecific format: His-tag, TAA2-specific domain, TAA3-specific domain, CD3-specific domain) (designed binder, part only; not given: CD123 and CD33 DARPin domains, not shown: small tags and cut ends) chain, part: MRGSHHHHHHGSGSPTPTPTTPTPTPTTPTPTPTGSPTPTPTTPTPTPTTPTPTPTDLGQKLLEAAWAGQLDEVRILLKAGADVNAKNSRGWTPLHTAAQTGHLEIFEVLLKAGADVNAKTNKRVTPLHLAAALGHLEIVEVLLKAGADVNARDTWGTTPADLAAKYGHRDIAEVLQKAA", "values": [
      {"measurement": "EC50 (read off the curve)", "setting": "[3]", "result": 6, "unit": "nM"},
      {"measurement": "EC50", "setting": "[4]", "result": "5 to 15", "unit": "nM"},
      {"measurement": "Kd", "setting": "[5]", "result": 6, "unit": "nM"},
      {"measurement": "koff", "setting": "[5]", "result": 0.00041, "unit": "s⁻¹"},
      {"measurement": "kon", "setting": "[5]", "result": 82000, "unit": "M⁻¹ s⁻¹"}
    ]},
    {"binder": "DARPin® protein #2 with TAA2/TAA3 domains (trispecific format: His-tag, TAA2-specific domain, TAA3-specific domain, CD3-specific domain) (designed binder, part only; not given: CD123 and CD33 DARPin domains, not shown: small tags and cut ends) chain, part: MRGSHHHHHHGSGSPTPTPTTPTPTPTTPTPTPTGSPTPTPTTPTPTPTTPTPTPTDLGQKLLEAAWAGQDDEVRELLKAGADVNAKNSRGWTPLHTAAQTGHLEIFEVLLKAGADVNAKDDKGVTPLHLAAALGHLEIVEVLLKAGADVNAQDSWGTTPADLAAKYGHEDIAEVLQKAA", "values": [
      {"measurement": "Kd", "setting": "[6]", "result": 35, "unit": "nM"},
      {"measurement": "koff", "setting": "[6]", "result": 0.0015, "unit": "s⁻¹"},
      {"measurement": "kon", "setting": "[6]", "result": 49000, "unit": "M⁻¹ s⁻¹"},
      {"measurement": "EC50", "setting": "[4]", "result": "250 to 400", "unit": "nM"}
    ]},
    {"binder": "DARPin® protein #3 with TAA2/TAA3 domains (trispecific format: His-tag, TAA2-specific domain, TAA3-specific domain, CD3-specific domain) (designed binder, part only; not given: CD123 and CD33 DARPin domains, not shown: small tags and cut ends) chain, part: MRGSHHHHHHGSGSPTPTPTTPTPTPTTPTPTPTGSPTPTPTTPTPTPTTPTPTPTDLGQKLLEAAWAGQDDEVRELLKAGADVNAKNSRGWTPLHTAAQTGHLEIFEVLLKAGADVNAKNDKRVTPLHLAAALGHLEIVEVLLKAGADVNARDSWGTTPADLAAKYGHQDIAEVLQKAA", "values": [
      {"measurement": "EC50", "setting": "[4]", "result": "50 to 100", "unit": "nM"},
      {"measurement": "Kd", "setting": "[7]", "result": 15, "unit": "nM"},
      {"measurement": "koff", "setting": "[7]", "result": 0.0013, "unit": "s⁻¹"},
      {"measurement": "kon", "setting": "[7]", "result": 89000, "unit": "M⁻¹ s⁻¹"}
    ]}
  ]
}
